This data set concerns the molecule itself. Nature of the data set: analytical size-exclusion chromatography; self-association (homodimer). Background: SEC sorts molecules by how far they enter the pores of the column.

The text below walks through data of patent US7534592 (Takeda / Millennium, dated 2009).

B1: recombinant ACC2 catalytic domain (carboxyltransferase domain of human Acetyl-Coenzyme A Carboxylase 2, residues 1715-2483 of SEQ. ID No. 1) with a … (enzyme)
chain: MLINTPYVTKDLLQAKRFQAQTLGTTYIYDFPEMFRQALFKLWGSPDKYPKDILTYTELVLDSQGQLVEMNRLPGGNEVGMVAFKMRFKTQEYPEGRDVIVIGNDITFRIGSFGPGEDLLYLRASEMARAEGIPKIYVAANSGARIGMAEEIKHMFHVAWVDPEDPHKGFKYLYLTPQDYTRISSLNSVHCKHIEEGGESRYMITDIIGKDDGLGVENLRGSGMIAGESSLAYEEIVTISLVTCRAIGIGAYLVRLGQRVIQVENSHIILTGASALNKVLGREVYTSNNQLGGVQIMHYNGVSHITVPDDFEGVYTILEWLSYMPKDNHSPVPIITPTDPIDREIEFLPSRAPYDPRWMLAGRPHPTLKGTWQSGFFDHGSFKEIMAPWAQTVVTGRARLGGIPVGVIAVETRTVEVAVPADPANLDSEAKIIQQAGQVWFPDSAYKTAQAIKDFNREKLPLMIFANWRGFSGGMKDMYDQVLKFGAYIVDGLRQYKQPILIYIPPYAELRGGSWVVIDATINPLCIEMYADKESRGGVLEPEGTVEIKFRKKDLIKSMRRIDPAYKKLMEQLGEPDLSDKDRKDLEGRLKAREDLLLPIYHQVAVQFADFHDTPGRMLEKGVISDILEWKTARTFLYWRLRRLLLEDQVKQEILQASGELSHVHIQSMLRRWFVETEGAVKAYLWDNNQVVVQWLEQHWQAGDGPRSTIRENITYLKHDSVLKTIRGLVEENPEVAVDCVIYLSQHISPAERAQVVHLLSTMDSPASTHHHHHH
modifications: one acetylation observed by mass spectrometry (position not given)
notes: The entries describe its self-association into the homodimer (two copies of this chain); Expressed in Sf9 insect cells; In the crystal it is in complex with acetyl-CoA, a small molecule; also called carboxyltransferase domain of ACC2; ID No. 3
Take B1: the binding result is “binds”.
